Test results: publication PMC10374912 (Nature Communications, 2023)

Molecular target: T1, Rtg3-6XHis (recombinant, co-expressed with Rtg1) (C. albicans, UniProt A0A1D8PF20 1-520)
T1 construct: Rtg3, basic helix-loop-helix transcription factor of Candida albicans; also called tagged Rtg3; Rtg3X6his; source: E. coli BL21(DE3), co-expressed with Rtg1 from pColaDuet (pLC1452), purified (Ni-NTA, heparin, SEC)
T1 sequence (looked up): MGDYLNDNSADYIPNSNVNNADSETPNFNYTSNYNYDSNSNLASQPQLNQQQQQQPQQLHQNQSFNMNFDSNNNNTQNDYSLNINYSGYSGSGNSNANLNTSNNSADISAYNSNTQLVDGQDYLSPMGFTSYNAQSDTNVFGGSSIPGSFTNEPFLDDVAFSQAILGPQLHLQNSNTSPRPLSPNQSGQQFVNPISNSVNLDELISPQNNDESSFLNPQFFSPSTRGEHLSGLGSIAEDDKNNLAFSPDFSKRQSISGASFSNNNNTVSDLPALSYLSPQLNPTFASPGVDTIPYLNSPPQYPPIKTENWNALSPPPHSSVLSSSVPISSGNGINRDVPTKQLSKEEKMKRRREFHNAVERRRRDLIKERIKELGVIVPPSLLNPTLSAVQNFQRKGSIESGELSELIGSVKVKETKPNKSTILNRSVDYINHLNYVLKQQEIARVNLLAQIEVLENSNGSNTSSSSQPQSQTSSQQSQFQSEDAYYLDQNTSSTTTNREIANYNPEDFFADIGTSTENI
Assay: SEC; Rtg1 and Rtg3-6XHis co-expressed in E. coli, co-purified by Ni-NTA and heparin, then HiLoad 16/600 Superdex 200 pg; 25 mM HEPES-NaOH pH 7.8, 300 mM NaCl, 5% glycerol; ambient temperature; fractions on SDS-PAGE, Coomassie
Details: both partners purified

B1: Rtg1 (recombinant, co-expressed with Rtg3-6XHis) (natural protein, C. albicans, UniProt Q5APP3 1-274, looked up)
chain: MSQFGEFYDTYSVENNQQYDTDLNNSTNTPIVQSKQRNDNIIPSINIKQEDFDSVLSGSLDVKKQLSSSLNTAGVGIGSSYGNGGISKPQSRRNSTYIKSHEGSDNEDEDDQNDKDVGNERKRRDNINDKIQELLTLIPSEFFQSNTDNNTKTGTKVVKENSPEDDAVKNSGTKDGKPNKGQILTKSVEYLQYLQNLIDENNRKEVELIMRLKTLELKAANRPSENIPIRIGYTSAEKALGEIGVGPCSEEYFKNVLIKSASTSKSGRRGSTSG
notes: Rtg1, basic helix-loop-helix transcription factor of Candida albicans; untagged; source: E. coli BL21(DE3), co-expressed with Rtg3-6XHis from pColaDuet (pLC1452), purified (Ni-NTA, heparin, SEC)
Q: With B1 as the binder, how does the “stoichiometry N” value read?
A: The value was about 1.
